Legend:
Assay in all cases: EMSA
Cdc13-DBD = biological target: T1, Cdc13-DBD (Saccharomyces cerevisiae, UniProt P32797 497-694)
T1 sequence: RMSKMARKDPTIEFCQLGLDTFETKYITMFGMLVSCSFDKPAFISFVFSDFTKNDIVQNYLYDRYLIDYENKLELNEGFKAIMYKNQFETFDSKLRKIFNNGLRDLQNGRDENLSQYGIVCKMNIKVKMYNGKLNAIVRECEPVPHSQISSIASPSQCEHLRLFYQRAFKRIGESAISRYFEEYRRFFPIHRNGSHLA

Cdc13-K622A = biological target: T2, Cdc13-K622A (Saccharomyces cerevisiae, UniProt P32797 1-924, K622A)
T2 sequence: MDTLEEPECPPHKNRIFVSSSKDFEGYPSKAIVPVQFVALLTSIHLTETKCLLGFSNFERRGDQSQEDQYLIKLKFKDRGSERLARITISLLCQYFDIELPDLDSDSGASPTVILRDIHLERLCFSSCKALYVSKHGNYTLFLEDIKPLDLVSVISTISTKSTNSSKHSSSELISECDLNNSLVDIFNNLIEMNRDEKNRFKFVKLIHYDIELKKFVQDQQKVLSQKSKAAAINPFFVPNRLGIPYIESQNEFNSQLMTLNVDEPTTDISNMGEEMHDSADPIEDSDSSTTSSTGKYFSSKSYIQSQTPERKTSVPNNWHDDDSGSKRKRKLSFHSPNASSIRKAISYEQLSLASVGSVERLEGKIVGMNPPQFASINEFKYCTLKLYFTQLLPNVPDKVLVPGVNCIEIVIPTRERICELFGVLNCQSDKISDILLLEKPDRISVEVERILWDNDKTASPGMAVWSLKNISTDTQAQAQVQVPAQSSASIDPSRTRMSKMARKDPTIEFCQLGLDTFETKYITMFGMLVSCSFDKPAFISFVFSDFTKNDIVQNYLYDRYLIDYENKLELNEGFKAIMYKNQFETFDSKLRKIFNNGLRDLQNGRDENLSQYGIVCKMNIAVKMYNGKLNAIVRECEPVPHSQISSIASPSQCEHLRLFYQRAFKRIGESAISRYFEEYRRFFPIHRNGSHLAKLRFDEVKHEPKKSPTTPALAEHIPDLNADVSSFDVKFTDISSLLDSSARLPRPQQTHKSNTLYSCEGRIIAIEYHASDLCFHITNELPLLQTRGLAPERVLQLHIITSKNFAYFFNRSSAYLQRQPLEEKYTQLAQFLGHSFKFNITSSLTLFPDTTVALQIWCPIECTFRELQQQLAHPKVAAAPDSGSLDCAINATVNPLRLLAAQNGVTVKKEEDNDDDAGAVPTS

Cdc13-Y561A = biological target: T3, Cdc13-Y561A (Saccharomyces cerevisiae, UniProt P32797 1-924, Y561A)
T3 sequence: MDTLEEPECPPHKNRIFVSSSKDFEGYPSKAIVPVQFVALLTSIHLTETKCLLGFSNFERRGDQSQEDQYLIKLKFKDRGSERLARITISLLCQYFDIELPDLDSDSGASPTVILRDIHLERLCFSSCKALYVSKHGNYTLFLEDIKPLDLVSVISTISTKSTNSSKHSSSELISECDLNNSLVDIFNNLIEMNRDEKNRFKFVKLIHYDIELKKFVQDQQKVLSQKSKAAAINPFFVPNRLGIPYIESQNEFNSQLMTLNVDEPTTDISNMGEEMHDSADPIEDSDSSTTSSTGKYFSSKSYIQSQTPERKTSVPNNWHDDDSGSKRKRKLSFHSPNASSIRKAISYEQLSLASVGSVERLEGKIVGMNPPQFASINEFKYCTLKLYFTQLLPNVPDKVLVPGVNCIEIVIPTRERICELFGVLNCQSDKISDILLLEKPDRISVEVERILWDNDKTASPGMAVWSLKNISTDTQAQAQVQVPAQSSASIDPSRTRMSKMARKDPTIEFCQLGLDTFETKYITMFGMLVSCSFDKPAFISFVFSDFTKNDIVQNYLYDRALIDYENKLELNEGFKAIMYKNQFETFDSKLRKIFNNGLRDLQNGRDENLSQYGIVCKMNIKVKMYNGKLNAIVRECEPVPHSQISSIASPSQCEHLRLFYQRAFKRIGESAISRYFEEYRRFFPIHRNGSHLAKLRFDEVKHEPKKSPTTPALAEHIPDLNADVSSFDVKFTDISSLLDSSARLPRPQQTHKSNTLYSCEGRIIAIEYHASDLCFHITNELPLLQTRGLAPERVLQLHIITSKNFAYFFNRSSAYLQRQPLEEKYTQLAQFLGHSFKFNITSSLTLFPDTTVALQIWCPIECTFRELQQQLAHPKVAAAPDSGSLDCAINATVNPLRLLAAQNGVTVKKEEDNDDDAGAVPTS

Cdc13-MOB-DBD = biological target: T4, Cdc13-MOB-DBD (Saccharomyces cerevisiae, UniProt P32797 344-694)
T4 sequence: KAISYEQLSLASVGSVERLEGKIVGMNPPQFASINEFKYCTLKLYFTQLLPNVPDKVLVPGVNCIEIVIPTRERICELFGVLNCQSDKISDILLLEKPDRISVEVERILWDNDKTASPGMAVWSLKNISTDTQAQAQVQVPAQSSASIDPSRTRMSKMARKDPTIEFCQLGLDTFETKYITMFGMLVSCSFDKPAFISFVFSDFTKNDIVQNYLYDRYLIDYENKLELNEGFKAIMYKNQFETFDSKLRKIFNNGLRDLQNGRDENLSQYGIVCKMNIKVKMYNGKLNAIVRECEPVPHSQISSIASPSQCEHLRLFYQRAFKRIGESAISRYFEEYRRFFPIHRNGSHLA

GTGTGGGTGTG (ssDNA) [Tel11]
Kd (Cdc13-DBD): 0.0034 ± 0.0005 nM | Kd (Cdc13-K622A): 0.05 ± 0.003 nM | Kd (Cdc13-Y561A): 0.017 ± 0.001 nM | Kd (Cdc13-MOB-DBD): 0.0023 ± 0.0002 nM

Source: article PMC3874162 (Nucleic Acids Research, 2013)
